Laboratory results reported in PMC3784749.

Molecular target: glutathione S-transferase from Schistosoma japonicum (Schistosoma japonicum)
Experiment: SAXS; GST alone in 20 mM phosphate, 80 mM NaCl, pH 8.0, 20 °C; shape reconstruction (GASBOR, DAMAVER) superimposed on crystal structure 1UA5

glutathione S-transferase from Schistosoma japonicum (enzyme)
stoichiometry N: 2
